{"source": "patent US8936806B2", "about": "“Periostin induces proliferation of cardiomyocytes and promotes cardiac regeneration” (Children's Medical Center Corporation, priority 2007, dated 2015)", "molecules": {"B1": {"name": "periostin: Recombinant periostin, purified from HEK293 cells expressing the full-length human cDNA; secreted protein of 834 amino acids (Seq ID. No. 1) (protein, listed as Homo sapiens)", "chain": "MIPFLPMFSLLLLLIVNPINANNHYDKILAHSRIRGRDQGPNVCALQQILGTKKKYFSTCKNWYKKSICGQKTTVLYECCPGYMRMEGMKGCPAVLPIDHVYGTLGIVGATTTQRYSDASKLREEIEGKGSFTYFAPSNEAWDNLDSDIRRGLESNVNVELLNALHSHMINKRMLTKDLKNGMIIPSMYNNLGLFINHYPNGVVTVNCARIIHGNQIATNGVVHVIDRVLTQIGTSIQDFIEAEDDLSSFRAAAITSDILEALGRDGHFTLFAPTNEAFEKLPRGVLERFMGDKVASEALMKYHILNTLQCSESIMGGAVFETLEGNTIEIGCDGDSITVNGIKMVNKKDIVTNNGVIHLIDQVLIPDSAKQVIELAGKQQTTFTDLVAQLGLASALRPDGEYTLLAPVNNAFSDDTLSMVQRLLKLILQNHILKVKVGLNELYNGQILETIGGKQLRVFVYRTAVCIENSCMEKGSKQGRNGAIHIFREIIKPAEKSLHEKLKQDKRFSTFLSLLEAADLKELLTQPGDWTLFVPTNDAFKGMTSEEKEILIRDKNALQNIILYHLTPGVFIGKGFEPGVTNILKTTQGSKIFLKEVNDTLLVNELKSKESDIMTTNGVIHVVDKLLYPADTPVGNDQLLEILNKLIKYIQIKFVRGSTFKEIPVTVYTTKIITKVVEPKIKVIEGSLQPIIKTEGPTLTKVKIEGEPEFRLIKEGETITEVIHGEPIIKKYTKIIDGVPVEITEKETREERIITGPEIKYTRISTGGGETEETLKKLLQEEVTKVTKFIEGGDGHLFEDEEIKRLLQGDTPVRKLQANKKVQGSRRRLREGRSQ"}}, "key": {"[1]": {"test_system": "primary neonatal rat ventricular cardiomyocytes", "test": "Cell cycle markers (Ki-67, phosphorylated Rb, cyclin A) in neonatal cardiomyocytes", "format": "cell-based", "excerpt": "Primary neonatal rat ventricular cardiomyocytes were isolated using the Neomyts kit (Cellutron, Highland Park, N.J.), seeded at a density of 10^5 cells/cm^2 onto gelatin-coated cover slips, stimulated for 3 days, and labeled with BrdU for the terminal 2 days. Primary adult ventricular cardiomyocytes were isolated from male (300 gm) Wistar rats (Charles River Laboratories) and maintained as described (Engel, F. B. et al. p38 MAP kinase inhibition enables proliferation of adult mammalian cardiomyocytes. Genes Dev 19, 1175-87 (2005)). Adult cardiomyocytes were stimulated daily for 9 days and labeled with 30 μM BrdU for the terminal 3 days. Cardiomyocytes were stimulated with periostin (500 ng/mL) and FGF (100 ng/mL). Inhibiting antibodies were added at a concentration of 10 μg/mL, cRGD at 10 μM, U0126 at 10 μM, PD98059 at 1 μM, LY294002 at 10 μM, and Wortmannin at 0.1 μM 30 min prior to stimulation. The vehicle used to dissolve factors or chemicals was added to unstimulated samples, which were then processed together with the test samples.\nDNA-synthesis was analyzed by visualization of BrdU uptake and cytokinesis was determined by detection of the cleavage furrow and the midbody with an antibody against aurora B kinase as described (Engel, F. B. et al. p38 MAP kinase inhibition enables proliferation of adult mammalian cardiomyocytes. Genes Dev 19, 1175-87 (2005)). Signals were visualized with secondary antibodies conjugated to Alexa 488, Alexa 546, Alexa 594, and Alexa 647 (Invitrogen). Nuclei were visualized with 4′,6′-diamidino-2-phenylindole (DAPI, Invitrogen). For image acquisition, the value for γ was set at 1 and the lookup table settings were linear."}, "[2]": {"test_system": "differentiated cardiomyocytes", "test": "Hypertrophy by [3H]leucine uptake", "format": "cell-based, rat", "details": "phenylephrine 10 mM [sic]; all time points tested", "excerpt": "Induction of the fetal gene program is accompanied by increased protein synthesis leading to cardiomyocyte hypertrophy. We assessed cardiomyocyte hypertrophy by measuring uptake of [^3H]leucine."}, "[3]": {"test_system": "Adult male Sprague-Dawley rats", "test": "Rat model of myocardial infarction: analysis of myocardial regeneration (histology, immunofluorescence)", "format": "in vivo", "description": "Horizontal cryosections of 14 μm thickness spaced at 1 mm intervals were analyzed. To determine infarct size, Masson's Trichrome-stained sections were analyzed at 1× magnification. The infarct border zone was defined as myocardial tissue within 0.5 mm of the fibrous scar tissue. Fibrosis and cardiomyocyte cross-sectional area were determined after staining with Masson's Trichrome at 10× and 40× magnification, respectively, and quantified using the Metamorph software package. BrdU-positive cardiac fibroblast nuclei were determined at 5 cross-sections per heart at the level of the myocardial infarction. Cardiomyocyte nuclei were counted using the optical dissector method (Howard, C. V. & Reed, M. Unbiased Stereology: Three-Dimensional Measurement In Microscopy, (BIOS Scientific Publishers, Oxford, 2005)) on troponin T and DAPI-stained sections in 32-60 random sample volumes of […] per heart. BrdU-positive cardiomyocyte nuclei were quantified on 16-20 sections per heart. […] Adult male Sprague-Dawley rats (300 gm, Charles River Laboratories) underwent experimental myocardial infarction as described (del Monte, F. et al. Abrogation of ventricular arrhythmias in a model of ischemia and reperfusion by targeting myocardial calcium cycling. Proc Natl Acad Sci USA 101, 5622-7 (2004)). The survival rate was 67%. Gelfoam loaded with 100 μg of recombinant periostin or with buffer were applied over the myocardial infarction at the time of surgery. […] Echocardiography and hemodynamic catheterization were performed as described (Prunier, F. et al. Am J Physiol Heart Circ Physiol (2006)). Horizontal cryosections of 14 μm thickness spaced at 1 mm intervals were analyzed. Masson's Trichrome-stained sections were analyzed at 10× magnification to determine infarct size (Pasumarthi, K. B., et al. Circ Res 96, 110-8 (2005)), defined as [coronal infarct perimeter (epicardial+endocardial)/total coronal perimeter (epicardial+endocardial)]×100 and thinning index (Engel, F. B., et al. Proc Natl Acad Sci USA 103, 15546-51 (2006)), defined as minimal infarct wall thickness/maximal septal wall thickness. The infarct border zone was defined as myocardial tissue within 0.5 mm of the fibrous scar tissue. Fibrosis was determined on 10× images of Masson's Trichrome stainings and quantified using the Metamorph software package (Molecular Devices Corp.). Cardiomyocyte cross-sectional area was determined after staining with Masson's Trichrome at 40× magnification and quantified using the Metamorph software package. BrdU-positive cardiac fibroblast nuclei were determined at 5 cross-sections per heart at the level of the myocardial infarction. Cardiomyocyte nuclei were counted on troponin T and DAPI-stained sections in 32-60 random sample volumes of 84,500 μm^3 per heart. BrdU-positive cardiomyocyte nuclei were quantified on 16-20 sections per heart. Capillaries and stem cells were detected with antibodies against von Willebrand factor (vWF) and c-kit, respectively, and quantified at 5 cross-sections per heart at the level of the myocardial infarction."}, "[4]": {"test_system": "primary neonatal rat ventricular cardiomyocytes", "test": "Cardiomyocyte apoptosis (TUNEL) and survival", "experimental": "To determine cardiomyocyte proliferation, primary neonatal rat ventricular cardiomyocytes were quantified by counting with a hemocytometer after 3 days and 6 days of stimulation. To determine cardiomyocyte survival, primary neonatal rat ventricular cardiomyocytes were pre-treated with 500 ng/mL periostin or buffer for 30 min and then exposed to 0.5 μM doxycycline or 100 ng/mL TNFα for 24 hr and quantified by counting. Corresponding samples were stained with an antibody directed against tropomyosin as a cardiomyocyte marker to control for the percentage of differentiated cardiomyocytes. Apoptotic cardiomyocyte nuclei were determined after 24 hr with the In situ Cell Death Detection Kit (Roche, Indianapolis, Ind.) in combination with staining for troponin I."}, "[5]": {"details": "1 week, infarct and border zone"}}, "note": "Values joined by “and” are separate entries in the source; they are usually repeats but may differ in a detail not shown here. Identical values can stand only once. “Also recorded” adds a separate entry of the source.", "data": [{"molecule": "B1", "values": [{"measurement": "increase of cardiomyocytes expressing cyclin A", "setting": "[1]", "value": 11, "unit": "fold"}, {"measurement": "increase of cardiomyocytes with phosphorylated Rb", "setting": "[1]", "value": 12, "unit": "fold"}, {"measurement": "increase of proliferating cardiomyocytes (Ki-67)", "setting": "[1]", "value": 4, "unit": "fold"}, {"measurement": "[3H]leucine uptake (hypertrophy)", "setting": "[2]", "value": "did not induce uptake; also recorded: did not induce hypertrophy"}, {"measurement": "number of c-kit-positive cells in infarct and border zone vs control", "setting": "[3]; 1 and 12 weeks", "value": "did not differ"}, {"measurement": "mitosis (H3P), of cardiomyocyte nuclei", "setting": "[3]; 1 week", "value": "0.1±0.01", "unit": "%"}, {"measurement": "infarct size vs control", "setting": "[3]; 1 week after MI", "value": "same infarct size"}, {"measurement": "number of BrdU-positive cardiac fibroblasts", "setting": "[3]; 1 week after MI", "value": "decreased"}, {"measurement": "number of cardiomyocyte nuclei vs control", "setting": "[3]; 1 week after MI", "value": "same number of nuclei"}, {"measurement": "proportion of cycling cardiomyocytes vs proportion of apoptotic cardiomyocytes", "setting": "[3]; 1 week after MI", "value": "five-fold higher"}, {"measurement": "arteriolar density vs control", "setting": "[3]; [5]", "value": "did not differ"}, {"measurement": "capillary density vs control", "setting": "[3]; [5]", "value": "did not differ"}, {"measurement": "mitosis (H3P), of cardiomyocyte nuclei", "setting": "[3]; 12 weeks", "value": "0.2±0.5", "unit": "%"}, {"measurement": "fibrotic tissue", "setting": "[3]; 12 weeks after MI", "value": "significantly decreased"}, {"measurement": "heart weight vs buffer-treated rats", "setting": "[3]; 12 weeks after MI", "value": "similar"}, {"measurement": "increase in arteriolar density compared with control hearts", "setting": "[3]; 12 weeks after MI", "value": 1.5, "unit": "fold"}, {"measurement": "increase in capillary density compared with control hearts", "setting": "[3]; 12 weeks after MI", "value": 4, "unit": "fold"}, {"measurement": "infarct size smaller compared with control hearts", "setting": "[3]; 12 weeks after MI", "value": 50, "unit": "%"}, {"measurement": "left ventricular free wall thickness vs control", "setting": "[3]; 12 weeks after MI", "value": "thicker"}, {"measurement": "more cardiomyocyte nuclei than control hearts", "setting": "[3]; 12 weeks after MI", "value": "6.2×10^6"}, {"measurement": "proportion of cycling cardiomyocytes vs proportion of apoptotic cardiomyocytes", "setting": "[3]; 12 weeks after MI", "value": 100, "unit": "fold"}, {"measurement": "scar volume vs control", "setting": "[3]; 12 weeks after MI", "value": "smaller scar volume"}, {"measurement": "septum thickness vs control", "setting": "[3]; 12 weeks after MI", "value": "thinner"}, {"measurement": "thinning index", "setting": "[3]; 12 weeks after MI", "value": "improved thinning index"}, {"measurement": "increased capillary density compared with control animals", "setting": "[3]; FIG. 11A, time not given, legend b80: one week", "value": 4, "unit": "fold"}, {"measurement": "number of stem cells (c-kit) vs buffer treated hearts", "setting": "[3]; FIG. 11B", "value": "similar"}, {"measurement": "calculated new cardiomyocyte nuclei from BrdU rate", "setting": "[3]; after 12 weeks", "value": "7.2×10^6 per heart"}, {"measurement": "cross-sectional cardiomyocyte area vs control", "setting": "[3]; after MI", "value": "smaller"}, {"measurement": "increase of DNA synthesis compared with buffer-treated animals", "setting": "[3]; after MI", "value": 10, "unit": "fold"}, {"measurement": "left ventricular cardiomyocyte nuclei", "setting": "[3]; after MI (FIG. 9i)", "value": 18.8, "unit": "million"}, {"measurement": "cardiomyocyte apoptosis vs control", "setting": "[3]; after MI, 1 and 12 weeks", "value": "without changing the rate of apoptosis; also recorded: without affecting apoptosis; also recorded: similar"}, {"measurement": "DNA synthesis, cardiomyocytes per heart", "setting": "[3]; after MI, 3 BrdU injections", "value": "5,268±402 per heart"}, {"measurement": "BrdU uptake, of cardiomyocytes", "setting": "[3]; infarct and border zone, 1 week", "value": "0.6±0.07", "unit": "%"}, {"measurement": "BrdU uptake, of cardiomyocytes", "setting": "[3]; infarct and border zone, 12 weeks", "value": "1±0.3", "unit": "%"}, {"measurement": "calculated cardiomyocyte nuclei generated from rate of mitosis", "setting": "[3]; over 12 weeks", "value": "5.5×10^6"}, {"measurement": "cardiomyocyte mitoses (metaphase chromosomes)", "setting": "[3]; periostin-treated hearts, n=6", "value": "4,737±770"}, {"measurement": "cell-cycle reentry, of all cardiomyocytes in the infarct border zone", "setting": "[3]; rat, in vivo", "value": "0.6-1%"}, {"measurement": "rate of cardiomyocytes entering the cell cycle", "setting": "[3]; rat, in vivo", "value": "3,727 per hour"}, {"measurement": "cell-cycle reentry of differentiated cardiomyocytes", "setting": "[3]; single injection of BrdU, labeling for 6.4 h, n=3", "value": "23,852±1,709 per heart"}, {"measurement": "BrdU-labeled cardiomyocytes / cell cycle re-entry in the infarct border zone", "setting": "[3]; three injections of BrdU", "value": "1.4% and 1.4±0.5%"}, {"measurement": "cardiomyocyte survival", "setting": "[4]; 500 ng/mL pre-treatment, then doxorubicin or TNF-α 24 hr", "value": "not affected"}, {"measurement": "doxorubicin or TNF-α-induced cardiomyocyte death", "setting": "[4]; FIG. 2L", "value": "did not reduce"}, {"measurement": "baseline and induced cardiomyocyte apoptosis", "setting": "[4]; TUNEL, 24 hr", "value": "not affected"}]}]}
